Measurements from PMC12207370, “Macrocyclic Peptide Probes for Immunomodulatory Protein CD59: Potent Modulators of Bacterial Toxin Activity and Antibody‐Dependent Cytotoxicity” (Angewandte Chemie (International Ed. in English), 2025).

Biological target: T1, biotinylated CD59 (Homo sapiens, UniProt P13987)
T1 construct: Recombinant soluble human CD59 with an additional C-terminal cysteine residue
T1 sequence (P13987 26-102 limits assumed): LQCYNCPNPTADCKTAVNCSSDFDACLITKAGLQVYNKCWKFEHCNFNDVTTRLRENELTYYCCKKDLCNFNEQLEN
Assay: mRNA-display cyclic peptide screen against CD59-biotin, NGS abundance after 6th selection round
Details: for Percentage Seq I: counts normalised by total counts of sample Seq I; for Percentage Seq I / Percentage Seq II: percentage of the pool; for Percentage Seq I / Percentage Seq II / Percentage Average / Percentage of the pool, averaged across the two sequencing samples / Percentage of the pool, Seq I / Percentage of the pool, Seq II: sheet R6; for Percentage Seq II: counts normalised by total counts of sample Seq II; for Percentage Average: percentage of the pool averaged across the two sequencing samples; for Counts Seq I / Counts Seq II: raw NGS counts of peptide sequence; for Counts Seq I: sequencing sample Seq I; for Counts Seq I / Counts Seq II / Counts (raw counts for peptide sequence), Seq I / Counts (raw counts for peptide sequence), Seq II: sheet R6 (6th selection round); for Counts Seq II: sequencing sample Seq II; for Counts (raw counts for peptide sequence), Seq I: NGS sample Seq I; for Counts (raw counts for peptide sequence), Seq II: NGS sample Seq II; for Percentage of the pool, averaged across the two sequencing samples: average of Seq I and Seq II; for Percentage of the pool, Seq I: counts normalised by total counts of NGS sample Seq I; for Percentage of the pool, Seq II: counts normalised by total counts of NGS sample Seq II
Procedure, shortened: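 Peptide–mRNA fusions were made by in vitro translation with a customised PURE express kit. The kit lacked release factor 1 and methionine and was supplemented with […] initiator tRNA carrying N-chloroacetyl-d-tyrosine. Thioether macrocycles were formed, then enriched and amplified over iterative rounds on CD59-biotin immobilised on streptavidin beads. NGS read counts per sequence were recorded after the 6th selection round.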

| Sequence | Percentage Seq I [%] | Percentage Seq II [%] | Percentage Average [%] | Counts Seq I | Counts Seq II | Counts (raw counts for peptide sequence), Seq I | Counts (raw counts for peptide sequence), Seq II | Percentage of the pool, averaged across the two sequencing samples [%] | Percentage of the pool, Seq I [%] | Percentage of the pool, Seq II [%] |
| --- | --- | --- | --- | --- | --- | --- | --- | --- | --- | --- |
| AKGNGHFAYG | 0.144 | 0.114 | 0.129 | 629 | 49 |  |  |  |  |  |
| WVYGSRYWRSI | 0.030 | 0.014 | 0.022 | 132 | 6 |  |  |  |  |  |
| CFTGRLTIDAV |  |  |  |  |  | 26 | 6 | 0.010 | 0.006 | 0.014 |
| QPFWGCRTVAYS | 0.033 | 0.049 | 0.041 | 144 | 21 |  |  |  |  |  |
| CFVNRLRSAESR | 0.141 | 0.144 | 0.143 | 618 | 62 |  |  |  |  |  |
| FIRGNSTSVLY |  |  |  |  |  | 58 | 8 | 0.016 | 0.013 | 0.019 |
| CFKKRLDTVST | 0.021 | 0.016 | 0.019 | 91 | 7 |  |  |  |  |  |
| CFSQRLDRTSS | 0.027 | 0.026 | 0.026 | 116 | 11 |  |  |  |  |  |
| CYGGRTSIYAWS | 0.032 | 0.023 | 0.028 | 142 | 10 |  |  |  |  |  |
| CLRLHREPGSL | 0.103 | 0.135 | 0.119 | 449 | 58 |  |  |  |  |  |
| CLDKWGRLWT | 0.042 | 0.042 | 0.042 | 182 | 18 |  |  |  |  |  |
| SAWGNRQIKYY |  |  |  |  |  | 65 | 6 | 0.014 | 0.015 | 0.014 |
| AVAGSRHWAWG | 0.039 | 0.039 | 0.039 | 171 | 17 |  |  |  |  |  |
| CYGGRTFVYAWS | 0.103 | 0.104 | 0.104 | 450 | 45 |  |  |  |  |  |
| SAWGNRQIQCY |  |  |  |  |  | 55 | 5 | 0.012 | 0.013 | 0.012 |
| WAKGSDTFTSG |  |  |  |  |  | 141 | 1 | 0.017 | 0.032 | 0.00232 |
| ARGGPTWSRG | 0.034 | 0.037 | 0.035 | 147 | 16 |  |  |  |  |  |
| DPICTRYNDPR |  |  |  |  |  | 46 | 5 | 0.011 | 0.011 | 0.012 |

| Sequence | Percentage Seq I [%] | Percentage Seq II [%] | Percentage Average [%] | Counts Seq I | Counts Seq II | Counts (raw counts for peptide sequence), Seq I | Counts (raw counts for peptide sequence), Seq II | Percentage of the pool, averaged across the two sequencing samples [%] | Percentage of the pool, Seq I [%] | Percentage of the pool, Seq II [%] |
| --- | --- | --- | --- | --- | --- | --- | --- | --- | --- | --- |
| YIRGTQDTFLF |  |  |  |  |  | 46 | 7 | 0.013 | 0.011 | 0.016 |
| CFNSRLHIGAV | 0.041 | 0.058 | 0.050 | 181 | 25 |  |  |  |  |  |
| WRDRFDQCAL |  |  |  |  |  | 67 | 6 | 0.015 | 0.015 | 0.014 |
| CFARRLSASSGT | 0.024 | 0.028 | 0.026 | 106 | 12 |  |  |  |  |  |
| CFLKRDRSASI |  |  |  |  |  | 56 | 7 | 0.015 | 0.013 | 0.016 |
| GYLNECHALYTR |  |  |  |  |  | 63 | 9 | 0.018 | 0.014 | 0.021 |
| YVRGDAWTVLG | 0.027 | 0.019 | 0.023 | 117 | 8 |  |  |  |  |  |
| CIRGTPTTVWG | 0.387 | 0.362 | 0.374 | 1692 | 156 |  |  |  |  |  |
| FVRGDLYSVLG | 4.958 | 4.911 | 4.934 | 21693 | 2116 |  |  |  |  |  |
| LLGTRDYVRLWH | 0.144 | 0.139 | 0.142 | 630 | 60 |  |  |  |  |  |
| CYGGRTFIYVWS | 0.038 | 0.023 | 0.031 | 168 | 10 |  |  |  |  |  |
| HVFGDRSFTRG | 0.028 | 0.026 | 0.027 | 124 | 11 |  |  |  |  |  |
| LWGTHSYIYYRP | 0.482 | 0.490 | 0.486 | 2109 | 211 |  |  |  |  |  |
| HVFGNRSFARG |  |  |  |  |  | 78 | 6 | 0.016 | 0.018 | 0.014 |
| CFTGRLSLDSI | 0.031 | 0.039 | 0.035 | 134 | 17 |  |  |  |  |  |
| HCWVRGSRNYA | 0.029 | 0.028 | 0.029 | 128 | 12 |  |  |  |  |  |
| VARGDWNHQFY |  |  |  |  |  | 40 | 7 | 0.013 | 0.009 | 0.016 |
| YVFWSRTHTYG | 0.172 | 0.165 | 0.168 | 751 | 71 |  |  |  |  |  |
